# Measurements from US7381540B2, “Composition for measuring glucose having improved substrate specificity” (Toyo Boseki Kabushiki Kaisha, priority 2005, dated 2008).
# B1: wild type PQQGDH: wild type PQQ dependent glucose dehydrogenase (Toyobo GLD-321) (protein, listed as Acinetobacter baumannii)
# chain: DIPLTPAQFAKAKTENFDKKVILSNLNKPHALLWGPDNQIWLTERATGKILRVNPVSGSAKTVFQVPEIVSDADGQNGLLGFAFHPDFKHNPYIYISGTFKNPKSTDKELPNQTIIRRYTYNKTTDTFEKPIDLIAGLPSSKDHQSGRLVIGPDQKIYYTIGDQGRNQLAYLFLPNQAQHTPTQQELNSKDYHTYMGKVLRLNLDGSVPKDNPSFNGVVSHIYTLGHRNPQGLAFAPNGKLLQSEQGPNSDDEINLVLKGGNYGWPNVAGYKDDSGYAYANYSAATNKSQIKDLAQNGIKVATGVPVTKESEWTGKNFVPPLKTLYTVQDTYNYNDPTCGEMAYICWPTVAPSSAYVYTGGKKAIPGWENTLLVPSLKRGVIFRIKLDPTYSTTLDDAIPMFKSNNRYRDVIASPEGNTLYVLTDTAGNVQKDDGSVTHTLENPGSLIKFTYNGK
# Test: Maltose activity of purified PQQGDH by GDH activity measurement (PMS/DCPIP, Test Example 1)
# Assay type: biochemical, Acinetobacter baumannii strain NCIMB11517
# Conditions: substrate concentration in the assay mixture 4.8 mM; PIPES-NaOH pH 6.5, 37° C.
# Method: D-glucose+PMS+PQQGDH→D-glucono-1,5-lactone+PMS (red)
# PMS (red)+DCPIP→PMS+DCPIP (red)
# The presence of DCPIP (red) formed by reduction of […] (DCPIP) by phenazine methosulfate (PMS) (red) was measured by spectrophotometry at 600 nm.
# • A. D-glucose reagent: 1.0 M (1.8 g D-glucose (molecular weight: 180.16)/10 ml H2O) • B. PIPES-NaOH buffer: pH 6.5, 50 mM (1.51 g of PIPES (molecular weight: 302.36) suspended in 60 ml of water dissolved in 5 N NaOH followed by the addition of 2.2 ml of 10% Triton X-100; adjusted to pH of 6.5±0.5 at 25° C. using 5 N NaOH and brought to a final volume of 100 ml by addition of water) • C. PMS solution: 24 mM (73.52 mg of phenazine methosulfate (molecular weight: […])/10 ml H2O) • D. DCPIP solution: 2.0 mM (6.5 mg of […]/10 ml H2O • E. Enzyme diluent: 50 mM PIPES-NaOH buffer containing 1 mM CaCl2, 0.1% Triton X-100 and 0.1% BSA (pH: 6.5) Procedure:
# The following reaction mixture was prepared in a light-protected bottle and stored on ice (prepared at the time of use). • 1. […]
# The reduction in the absorbance relative to water at 600 nm was recorded for 4 to 5 minutes with a spectrophotometer while maintaining the temperature of the mixture at 37° C., and the ΔOD per minute was calculated from the initial linear portion of the curve (OD test). […]
# Activity was calculated using the following formula. […]
molecule,measurement,value
B1,maltose activity (ratio of the activity value when using maltose to the activity value when using glucose),110%
